Test system: K4 kissing-loop RNA reporter
Assay: apparent KD of K4 kissing-loop reporter; higher = weaker reporter binding
Conditions: Eterna round: R107
Experimental: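 RNA-MaP round R107: designed RNA switches with theophylline, tryptophan, arginine or FMN aptamers are transcribed on-chip within common flanks. They are titrated with a labelled K4 kissing-loop RNA reporter in RNA-MaP buffer (100 mM Tris pH 7.5, 80 mM KCl, 4 mM MgCl2), without ligand or with the indicated ligand. Median apparent KD per design.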

[1] = input ligand: theophylline 20 uM
[2] = input ligand: tryptophan 2.4 mM
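Further: bound reporter read as fluorescence of individual clusters on recovered sequencing chips by microscopy, with normalized cluster intensities fitted with a binding model.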

Sequence | apparent KD of K4 kissing-loop reporter (input ligand: FMN 200 uM) | apparent KD of K4 kissing-loop reporter (input ligand: arginine 13.2 mM) | apparent KD of K4 kissing-loop reporter (input ligand: none) | apparent KD of K4 kissing-loop reporter [1] | apparent KD of K4 kissing-loop reporter [2]
AACGUUUUGUGAAGGAGCGCGAUAAGCAGUGAUGUUGCUUACUAUCAAUUUAUAUUUUACACGCAGGUAGGUCGCACAAUACGUA [JR_SSArginiB_Sub018] | 159 nM | 135 nM | 160 nM | 148 nM | 163 nM
GACACUCGGUGAUAAUAACCGUUACGCGAUACCAGCGUAACAGUACGCCCUUGGCAGCGCAGUGAUGUUGCGUGCCGAGUGUGAA [Theo A Ex Mod of Esbiceve] | 180 nM | 170 nM | 172 nM | 170 nM | 163 nM
UGAUACCAGACGGCCGCCACUAGGACCGGGAGUGAUGUUCCCAAAUUAAAAUACUCGGCCGCCACUAGGACCGGGUCUGGUAUCU [TrypBX 26 #DoubleAptamer #SwitchBubble] | 244 nM | 269 nM | 295 nM | 360 nM | 113 nM
AGUGAUGUUUUUUUUAAGAGUGAUGUUUUUCGAGGACCGGUACGGCCGCCACUCGAGUGAUGAGUGAGGUGUUGUGAUGUUUAGU [cxmullin] | 436 nM | 314 nM | 458 nM | 504 nM | 248 nM
CCAUCGCUAUUCGAUACCAGUCAUUUUUUAUUUUAUUUUUUUUUUGGAGUGAUGUUCCAAGACCCUUGGCAGCGGAUAGUGAUGG [whbob_SS_Theo_B_th79] | 117 nM | 150 nM | 117 nM | 158 nM | 109 nM
AGACUAUCGUCAAAGACGGUAGUCAAAAGUGAGGAUAUAAGUGAUGUUAGAAGGCACUAAGACUGUAUCGAAUAGAUACGGUCAA [FmnA 2 #K4BetweenAptamer #OpenEnded] | 1450 nM | 425 nM | 721 nM | 534 nM | 600 nM
GUAUUGUGCCUGGAUACCAGACACCCGAGUGAUGUUCGGAGCAGAGUGAUGUUCUAAUAAGUCCCUUGGCAGCCGGUCGCAGUCG [Same State Theophylline B gf 4] | 810 nM | 869 nM | 914 nM | 535 nM | 886 nM
AAAUUUAAUAUAUUUAAAUAAAUAUGUGAUACCAGACAUUUAUAAGUCCCUUGGCAGCACAUUGCAGUGAUGUUGCUUAUAAUAA [JR_SSTheophyA_Sub016] | 72.7 nM | 80.9 nM | 89.7 nM | 145 nM | 76.5 nM
UUGGGCGAGGUAACGUGGAUAUCUCGUCGCAAGGAUAUCUGGAAACAGAGAAGGUGCUACAUUACCGGCAGUGAUGUUGCUGACC | 418 nM | 101 nM | 555 nM | 347 nM | 121 nM
CCAUCGCUAUUCGAUACCAGUCUUCGUAGGAAACUACGUCUGCAAAGGAGUGAUGUUCCAGACCCUUGGCAGCGAAUAGUGAUGG [Theophylline B K4 4] | 771 nM | 553 nM | 1110 nM | 444 nM | 799 nM
UGAUACCAGACGGCCGCCACUCCCGUAAGUCAAAGACUUACGAAGAGUAUCGUCCAGUGAUGUUGGAGGACCGGGUCUGGUAUCU [FiskerMod 10 - Jieux - Exclusion - Tryptophan B] | 344 nM | 298 nM | 338 nM | 320 nM | 729 nM
AAGUGAUGUUGUAGUGAUGUUGUGAUGUUGCAGGAUAUAUAGUGAUGUAGAAGGGUAAGUACUGAUUUUGUUUGUGAGUGAUGUU [zqqzzrmullin] | 92.8 nM | 40.1 nM | 73.8 nM | 61.1 nM | 67.8 nM
CCAUCGCUAUUCGAUACCAGCUACUUAGUGAUGUUAAGUUAAAAUCCACUGUAGGUGGAAAGCCCUUGGCAGCGAAUAGUGAUGG [Theophylline B K4 23] | 235 nM | 189 nM | 205 nM | 117 nM | 203 nM
CUACGACAGGAAGGAUAUCGUGUGGAGAGCAGUUAUUUAAAGGUAGUGAUGUUACAGGAGACUGUUCGAGAAGGUCCUCAGUUAC [theeternabot_exclusion_KL_FMN_B_32] | 104 nM | 98.6 nM | 119 nM | 93.3 nM | 103 nM
CAUAUUUCGGCGGCCGCCACUGACCAUAGCCUUCGAUGGCCAGUGAUGUUGGCCUCUGGCUCUAACAGGACCGGGCCGAAUUGUG [Uslaxe] | 239 nM | 137 nM | 198 nM | 145 nM | 116 nM
AGUAGUUGGGCGGCCGCCACUAGAACAGCUUUGCCAAAGGCAGAGCUCUAGAGUGAUGUUCUGGCUAGGACCGGGUCCAACUACA [#01 K4 Tryptophan B Same State] | 930 nM | 594 nM | 932 nM | 980 nM | 417 nM

Sequence | apparent KD of K4 kissing-loop reporter (input ligand: FMN 200 uM) | apparent KD of K4 kissing-loop reporter (input ligand: arginine 13.2 mM) | apparent KD of K4 kissing-loop reporter (input ligand: none) | apparent KD of K4 kissing-loop reporter [1] | apparent KD of K4 kissing-loop reporter [2]
AGAUGUUCCUGGGAUACCAGUCGGAGUCUCAGAGCUCGGAGUGAUGUUCUGGGAUGUUUCGGCCCUUGGCAGCUCUGGGACUCCC [#2 Exclusion - Theophylline B Attempt #24 (HarryS)] | 1120 nM | 624 nM | 642 nM | 735 nM | 726 nM
AAUACACUGUCGGCCGCCACUCUCGGCUGCAGUGUGCAGGGACAUGAGUGAUGUUUAUGUCGCGUGAGGACCGGGACUGAUGUAU [KL-SSTryp-B1 #analogue] | 326 nM | 257 nM | 312 nM | 326 nM | 209 nM
AGUGAAGUUAGUGAUGUGUGAGUUUGGGAAGGAGCGCCGAGGAAGGCAGGUAGGUCGCCCAGUGAUGUUGGUGUAAAGAUGAGAG [whbob_Ex_Arginine_A_2t122] | 308 nM | 135 nM | 158 nM | 254 nM | 231 nM
CGCAGUGAUGUUGCUAUUAUUCUUGGUUAACGAGGACCGGUACGGCCGCCACUCGAUUUCUAUCUAGUCCAGUGUUUUUUUGAGU [whbob_EX_Tryp_A_t7] | 347 nM | 392 nM | 470 nM | 451 nM | 250 nM
AUGUCUGAUAGCAGUGAUGUUGCUUCGGAUACCAGACGCGAUCAUGUCCCUUGGCAGCUGACACGGCACGUGCUAGGUUAGAUGG [whbob_Ex_Theo_A_th74] | 123 nM | 94.5 nM | 105 nM | 112 nM | 95.9 nM
GCGCGGGAGUGAUGUUCCAAGUGGUGUUAGCGAGGACCGGUACGGCCGCCACUCGUUACGGGCGGCCCGUAGGAUACACUGGCGC [Same State - Tryptophan A (Freestyle 18)] | 431 nM | 399 nM | 430 nM | 560 nM | 392 nM
CAUACGCAUGGAGGAUAUGAGAUUUCUCAUAUUAUUGUUUAUUCUCAGUGAUGUUGGGAUUUAAACUCAGAAGGCCAUGUGUAUG [Ex FMN B 9] | 273 nM | 124 nM | 138 nM | 137 nM | 132 nM
AAUCCUUACGGAGUGAUGUUCCGUAGCGAUACCAGCCAUUGCGAUGGCCCUUGGCAGCGCUAUAAGCAUUGCUAUUAAGGGCCAA [Theo A Ex t7a] | 134 nM | 107 nM | 124 nM | 121 nM | 126 nM
UGCGUCGGUUCAGAUACCAGCCAAUUAGAGUCGAGUGAUGUUCGACAUUGAACGUCCAAAGGCCCUUGGCAGCUGGAUUGAGGAU [Same State Theophylline B GF 21] | 211 nM | 104 nM | 114 nM | 189 nM | 87.3 nM
AUCACAGUGAUGUUGUGAUAUACUUCAGAUACCAGACUAGUGCUAGUCCCUUGGCAGCUGAACUCAGCAGCACCACUAGCACUCG [Theo A Ex t6a] | 153 nM | 130 nM | 139 nM | 144 nM | 134 nM
GGAUAGGACAUAGGAUAUGGUAGUGAUGUUACCAAACUGGUUAAACAUGUCAGAAAACUGGCAUGACCAGAAGGGUGUCCUAUCG [FmnBX 27 U11+G75] | 73 nM | 54.2 nM | 61.8 nM | 45.9 nM | 64.3 nM
GGUGCGCUGUUAGUGAUGUUAACCGAGGAUACCAGUUAGGCGUCUAACCCUUGGCAGCCUCUCUGGUCUCAUCAACGUUGUGCUA [theeternabot_exclusion_KL_Theo_A_37] | 600 nM | 431 nM | 599 nM | 641 nM | 463 nM
GUUACGCAUGGAAGGAGCGCGAAAAUUAAAUGUGAGUGAUGUUCACAAAUAAAUUAAAUAACGCAGGUAGGUCGCCAUGUGUAAC [Ex Arginine B K4 3] | 80.3 nM | 77.6 nM | 89 nM | 80.7 nM | 80.9 nM
UGACUACAGGAAUAAUAAUCUUAGUGAUGUUAGGAUAUGCUGAUAAGCAGAAGGAACUGAGAUCGAAAGAUCUCAAAAGUAGUCU [#05 K4 FMN A Exclusion] | 445 nM | 167 nM | 202 nM | 236 nM | 199 nM
GUCAACCCAGCUGAUACCAGCCGGUUACGCACAUGCACACCCAGUGAUGUUGGGUAUUAGGGCCCUUGGCAGCAGCCUCUUGGCU [theeternabot_sameState_KL_Theo_B_30] | 165 nM | 162 nM | 169 nM | 182 nM | 149 nM

Reference: the supplement of paper PMC9170038
